Assay results: patent US20250313641A1

Target: cynomolgus monkey IL-2 receptor (IL-2R) on cyno PBMC subsets (cynomolgus monkey) (UniProt Q38J85)
Assay: cell-based or functional assay

Sequence of cynomolgus monkey IL-2 receptor (IL-2R) on cyno PBMC subsets (cynomolgus monkey) (Q38J85 27-551, chain 1 of 2): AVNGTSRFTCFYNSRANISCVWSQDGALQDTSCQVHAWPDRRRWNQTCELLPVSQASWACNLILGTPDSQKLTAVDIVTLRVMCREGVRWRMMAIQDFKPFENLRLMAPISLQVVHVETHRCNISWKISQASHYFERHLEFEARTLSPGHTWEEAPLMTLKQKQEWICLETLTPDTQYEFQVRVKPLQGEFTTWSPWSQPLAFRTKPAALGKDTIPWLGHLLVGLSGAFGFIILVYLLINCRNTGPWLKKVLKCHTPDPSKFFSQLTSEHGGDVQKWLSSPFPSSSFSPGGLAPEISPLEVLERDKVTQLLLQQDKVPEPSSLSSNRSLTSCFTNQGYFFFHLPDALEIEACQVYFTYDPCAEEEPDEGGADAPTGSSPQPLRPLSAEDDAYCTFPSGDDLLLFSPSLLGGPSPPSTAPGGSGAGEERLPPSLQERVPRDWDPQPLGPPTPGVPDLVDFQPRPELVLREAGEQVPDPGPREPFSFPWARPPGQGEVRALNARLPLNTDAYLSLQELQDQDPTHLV
Sequence of cynomolgus monkey IL-2 receptor (IL-2R) on cyno PBMC subsets (cynomolgus monkey) (chain, as listed by the source, chain 2 of 2): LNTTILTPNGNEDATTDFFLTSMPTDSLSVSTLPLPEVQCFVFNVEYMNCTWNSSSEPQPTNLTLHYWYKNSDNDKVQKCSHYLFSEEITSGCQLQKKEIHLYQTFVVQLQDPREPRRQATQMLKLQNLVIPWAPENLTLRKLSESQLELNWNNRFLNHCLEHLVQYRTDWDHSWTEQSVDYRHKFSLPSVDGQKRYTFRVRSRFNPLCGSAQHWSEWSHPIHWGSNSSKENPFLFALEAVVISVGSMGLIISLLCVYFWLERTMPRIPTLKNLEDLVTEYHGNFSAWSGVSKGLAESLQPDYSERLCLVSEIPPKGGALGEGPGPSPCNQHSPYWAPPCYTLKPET

Question: Which results are given for “Recombinant human IL-2 (from UniProt P60568 21-153) (ligand)”?
Answer: Ki67 (Cyno) EC50 [nM], CD4^+ T cells: 0.01 nM; Ki67 (Cyno) EC50 [nM], CD8^+ T cells: 0.05 nM; Ki67 (Cyno) EC50 [nM], T-regs: 0.009 nM; Ki67 (Cyno) Emax (%), CD4^+ T cells: 90%; Ki67 (Cyno) Emax (%), CD8^+ T cells: 88%; Ki67 (Cyno) Emax (%), NK cells: 92%; Ki67 (Cyno) Emax (%), T-regs: 69%
